Experiment [1] deals with HLA-A*24:03. Kind of experiment: IEDB peptide-MHC binding, purified MHC/direct/fluorescence; filed as Kd, often an IC50 or EC50 that approximates it; ≥ and ≤ were set here for values at or beyond the usual limits of such assays.
Experiment [2] addresses HLA-A*23:01. The description is as above.
The target in experiment [3] is HLA-A*31:01. Nature of the experiment: IEDB peptide-MHC binding, purified MHC/competitive/fluorescence; filed as Kd, often an IC50 or EC50 that approximates it; ≥ and ≤ were set here for values at or beyond the usual limits of such assays. The settings on record: source organism: Bacillus anthracis str. A0488.
For experiment [4], the target named is HLA-A*24:03. The experiment is described as above.
Experiment [5] concerns the target HLA-B*40:01. Kind of experiment: IEDB peptide-MHC binding, purified MHC/direct/fluorescence; filed as Kd, often an IC50 or EC50 that approximates it; ≥ and ≤ were set here for values at or beyond the usual limits of such assays. The following applies: source organism: Mammarenavirus lassaense.
Experiment [6] addresses HLA-B*44:02. The description is as above. The following applies: source organism: Mammarenavirus lassaense.
Experiment [7] concerns the target HLA-B*58:01. The description is as above. The following applies: source organism: Mammarenavirus lassaense.
In experiment [8] the target is HLA-A*31:01. The experiment is described as above. The settings on record: source organism: Mammarenavirus lassaense.
The target of experiment [9] is HLA-A*01:01. Described as above. The settings on record: source organism: Mammarenavirus lassaense.
Experiment [10] has as its target HLA-A*03:01. The description is as above.
The target in experiment [11] is HLA-B*46:01. The description is as above. The settings on record: source organism: Mammarenavirus lassaense.
In experiment [12] the target is HLA-B*18:01. The description is as above. The settings on record: source organism: Mammarenavirus lassaense.
Experiment [13] addresses HLA-B*39:01. The experiment is described as above. The settings on record: source organism: Mammarenavirus lassaense.
Experiment [14] has as its target HLA-A*69:01. The experiment is described as above. The settings on record: source organism: Mammarenavirus lassaense.
For experiment [15], the target named is HLA-B*48:01. The experiment is described as above. The following applies: source organism: Mammarenavirus lassaense.
For experiment [16], the target named is HLA-A*11:01. Described as above. The settings on record: source organism: Mammarenavirus lassaense.
Experiment [17] addresses HLA-A*29:02. The description is as above. The following applies: source organism: Mammarenavirus lassaense.
The target of experiment [18] is HLA-B*27:05. The experiment is described as above. The settings on record: source organism: Mammarenavirus lassaense.
In experiment [19] the target is HLA-B*07:02. The description is as above. The following applies: source organism: Mammarenavirus lassaense.
The target of experiment [20] is HLA-B*57:01. Described as above. The following applies: source organism: Mammarenavirus lassaense.
Experiment [21] addresses HLA-B*15:01. The experiment is described as above. The following applies: source organism: Mammarenavirus lassaense.
Experiment [22] addresses HLA-A*02:01. Described as above. The settings on record: source organism: Mammarenavirus lassaense.
The target in experiment [23] is HLA-A*02:19. Nature of the experiment: IEDB peptide-MHC binding, purified MHC/competitive/fluorescence; filed as Kd, often an IC50 or EC50 that approximates it; ≥ and ≤ were set here for values at or beyond the usual limits of such assays.
Experiment [24] has as its target HLA-A*02:11. The experiment is described as above. The following applies: source organism: Escherichia coli.
Experiment [25] has as its target HLA-B*27:03. The experiment is described as above.
Experiment [26] concerns the target HLA-A*02:12. The description is as above.
Experiment [27] deals with HLA-A*03:01. The description is as above.
The target in experiment [28] is HLA-B*46:01. Described as above.
The target in experiment [29] is HLA-B*18:01. Described as above.
In experiment [30] the target is HLA-B*39:01. The description is as above.
The target of experiment [31] is HLA-A*68:02. Described as above.
For experiment [32], the target named is HLA-A*69:01. The description is as above. The settings on record: source organism: Escherichia coli.
In experiment [33] the target is HLA-A*26:01. Described as above.
The target in experiment [34] is HLA-B*51:01. Described as above.
Experiment [35] addresses HLA-B*15:17. The description is as above.
The target of experiment [36] is HLA-B*57:01. Described as above.
The target of experiment [37] is HLA-B*15:01. Described as above.
Experiment [38] concerns the target HLA-A*02:01. The description is as above.
For experiment [39], the target named is HLA-A*02:03. Described as above. The following applies: source organism: Yersinia mollaretii ATCC 43969.
Experiment [40] concerns the target HLA-A*02:19. Nature of the experiment: IEDB peptide-MHC binding, purified MHC/direct/fluorescence; filed as Kd, often an IC50 or EC50 that approximates it; ≥ and ≤ were set here for values at or beyond the usual limits of such assays. The settings on record: source organism: Orthohantavirus andesense.
Experiment [41] has as its target HLA-A*02:12. Described as above. The following applies: source organism: Orthohantavirus andesense.
The target in experiment [42] is HLA-A*02:03. Described as above. The settings on record: source organism: Orthohantavirus andesense.
Setting [43] is: source organism: Cryptosporidium parvum Iowa II.
Where [44] appears, read: source organism: Escherichia coli.
Setting [45] is: source organism: Yersinia mollaretii ATCC 43969.
[46] abbreviates: source organism: Orthohantavirus andesense.
Where [47] appears, read: source organism: Vibrio vulnificus CMCP6.

Bounds are passed on as bounds.

On to CIIGTVSKF, for which the results for the dissociation constant Kd in [1] (source organism: Amur virus) and in experiment [2] (source organism: Amur virus) were 0.049 µM and 0.097 µM, respectively.

Take GFKRGIFIF: the figures for the Kd in experiment [1] (setting [43]) and in experiment [2] (setting [43]) were at most 0.001 µM and 0.002 µM, respectively.

In the case of HFFESLYAR, the figures for the Kd in experiment [3] and in experiment [4] (source organism: Bacillus anthracis str. A0488) were 0.0016 µM and 4.13 µM, respectively.

KHDEEFCDM: the dissociation constant Kd in experiment [5], in experiment [6], in [7], in experiment [8], in experiment [9] and in experiment [10] (source organism: Mammarenavirus lassaense) was at least 20 µM in each case. In addition, the Kd in experiment [11], in [12], in experiment [13], in experiment [14], in [15] and in [16] was at least 20 µM in each case. Moreover, the equilibrium dissociation constant (Kd) in [17], in [18], in experiment [19], in experiment [20], in experiment [21] and in [22] was at least 20 µM throughout.

For the sequence MFWKLPPWL, the dissociation constant Kd – broadly, the constant that tells how readily two partners part at equilibrium – in experiment [23] (setting [44]) was at least 20 µM; in experiment [24], 0.0136 µM; in [25] (setting [44]), at least 20 µM; in experiment [26] (setting [44]), at least 20 µM; in experiment [27] (setting [44]), at least 20 µM; in [28] (setting [44]), at least 20 µM. Besides, the Kd in [29] (setting [44]), in experiment [30] (setting [44]), in experiment [31] (setting [44]), in experiment [32], in experiment [33] (setting [44]) and in experiment [34] (setting [44]) was at least 20 µM each time. Further, the equilibrium dissociation constant (Kd) in experiment [35] (setting [44]), in [36] (setting [44]), in experiment [37] (setting [44]) and in experiment [38] (setting [44]) was at least 20 µM each time.

On to MMWIPGWFG, for which the Kd in experiment [23] (setting [45]) was at least 20 µM; in [25] (setting [45]), at least 20 µM; in [26] (setting [45]) it was 0.185 µM; in experiment [27] (setting [45]), at least 20 µM; in experiment [28] (setting [45]), at least 20 µM; in experiment [4] (setting [45]), at least 20 µM. The equilibrium dissociation constant (Kd) in experiment [29] (setting [45]), in [30] (setting [45]), in experiment [31] (setting [45]), in [33] (setting [45]), in experiment [34] (setting [45]) and in [35] (setting [45]) was at least 20 µM in each case. For the same sequence, the Kd in experiment [36] (setting [45]), in [37] (setting [45]), in [39] and in experiment [38] (setting [45]) was at least 20 µM throughout.

Regarding QYTRNSFYI, the dissociation constant Kd in [4] (source organism: Escherichia coli 536) came out at 0.0003 µM.

With RWASGVSEI, the Kd in [25] (setting [46]) was at least 20 µM; in experiment [28] (setting [46]), at least 20 µM; in experiment [4] (setting [46]), 0.0002 µM; in experiment [29] (setting [46]), at least 20 µM; in experiment [30] (setting [46]) it was at least 20 µM; in [33] (setting [46]), at least 20 µM. Moreover, the equilibrium dissociation constant (Kd) in [34] (setting [46]), in experiment [36] (setting [46]), in experiment [40], in experiment [41], in experiment [10] (setting [46]) and in experiment [42] was at least 20 µM throughout.

SVYFAAFAF: the Kd in experiment [28] (source organism: Vibrio vulnificus YJ016) was at least 20 µM; in experiment [1] (setting [47]), 0.066 µM; in [2] (setting [47]), 0.016 µM.

For the origin of these results see the Immune Epitope Database (IEDB).
